In patent US20040138118:

Legend:
[1] = tested on: D76A mutant myostatin pro peptide
[2] = tested on: myostatin pro peptide (wild type)

Sequence of D76A mutant myostatin pro peptide (chain, as listed by the source D76A): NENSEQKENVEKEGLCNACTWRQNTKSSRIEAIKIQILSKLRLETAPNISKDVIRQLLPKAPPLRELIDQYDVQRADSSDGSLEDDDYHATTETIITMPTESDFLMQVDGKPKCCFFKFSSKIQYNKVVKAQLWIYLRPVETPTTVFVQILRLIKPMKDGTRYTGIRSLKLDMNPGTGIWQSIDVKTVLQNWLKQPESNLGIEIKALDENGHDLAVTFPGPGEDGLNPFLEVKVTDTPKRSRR

Substance: mammalian Tolloid (mTLD)
- proteolytic cleavage of the mutant pro peptide in the latent complex, western blot (FIGS. 3D and E) [1]: completely resistant to proteolysis by each of the four proteinases
- partial proteolytic cleavage of the pro peptide in the latent complex, western blot (FIG. 3E) [2]: mTLD was consistently less active than the other three
- proteolytic cleavage of free pro peptide [2]: All four of these proteinases also cleaved pro peptide that had been purified away from the C-terminal dimer
- proteolytic cleavage, SDS-PAGE and western blot with anti-pro peptide antiserum [2]: A discrete proteolytic cleavage product of the pro peptide was detected in each reaction containing one of the four proteases
